The experiment addresses T1, Dehydrodolichyl diphosphate synthase (DHDDS), full length (1-333), untagged (human, UniProt Q86SQ9-1 1-333).
T1 sequence: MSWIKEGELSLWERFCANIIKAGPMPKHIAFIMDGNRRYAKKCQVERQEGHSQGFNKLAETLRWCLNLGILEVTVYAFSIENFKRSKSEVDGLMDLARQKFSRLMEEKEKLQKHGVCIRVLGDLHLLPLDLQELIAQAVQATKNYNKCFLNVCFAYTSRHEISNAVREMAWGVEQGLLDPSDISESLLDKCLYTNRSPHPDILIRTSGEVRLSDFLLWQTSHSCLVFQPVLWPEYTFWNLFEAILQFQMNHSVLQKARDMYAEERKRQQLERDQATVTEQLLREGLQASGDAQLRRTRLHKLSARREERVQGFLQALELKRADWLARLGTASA
Briefly: crystal structure.

B1: NgBR^79-293 (Nogo-B receptor, N-terminal 78 amino acids deleted) (domain or fragment)
chain: AAAHHRMRWRADGRSLEKLPVHMGLVITEVEQEPSFSDIASLVVWCMAVGISYISVYDHQGIFKRNNSRLMDEILKQQQELLGLDCSKYSPEFANSNDKDDQVLNCHLAVKVLSPEDGKADIVRAAQDFCQLVAQKQKRPTDLDVDTLASLLSSNGCPDPDLVLKFGPVDSTLGFLPWHIRLTEIVSLPSHLNISYEDFFSALRQYAACEQRLGK
Regarding B1, the binding result is on record as “binds”.

Values taken from article doi:10.1101/2020.06.03.132209 (bioRxiv, 2020).
